Experimental data published in patent US20120328616A1 (Amgen, published 2012).
Positions count from the first letter of the chain named.

T1: murine β-Klotho (murine, UniProt Q99N32 1-1043)
T1 construct: Full length (GenBank NP-112457), transiently expressed on HEK-293T cells; also called mu β-klotho; mouse β-Klotho
T1 sequence: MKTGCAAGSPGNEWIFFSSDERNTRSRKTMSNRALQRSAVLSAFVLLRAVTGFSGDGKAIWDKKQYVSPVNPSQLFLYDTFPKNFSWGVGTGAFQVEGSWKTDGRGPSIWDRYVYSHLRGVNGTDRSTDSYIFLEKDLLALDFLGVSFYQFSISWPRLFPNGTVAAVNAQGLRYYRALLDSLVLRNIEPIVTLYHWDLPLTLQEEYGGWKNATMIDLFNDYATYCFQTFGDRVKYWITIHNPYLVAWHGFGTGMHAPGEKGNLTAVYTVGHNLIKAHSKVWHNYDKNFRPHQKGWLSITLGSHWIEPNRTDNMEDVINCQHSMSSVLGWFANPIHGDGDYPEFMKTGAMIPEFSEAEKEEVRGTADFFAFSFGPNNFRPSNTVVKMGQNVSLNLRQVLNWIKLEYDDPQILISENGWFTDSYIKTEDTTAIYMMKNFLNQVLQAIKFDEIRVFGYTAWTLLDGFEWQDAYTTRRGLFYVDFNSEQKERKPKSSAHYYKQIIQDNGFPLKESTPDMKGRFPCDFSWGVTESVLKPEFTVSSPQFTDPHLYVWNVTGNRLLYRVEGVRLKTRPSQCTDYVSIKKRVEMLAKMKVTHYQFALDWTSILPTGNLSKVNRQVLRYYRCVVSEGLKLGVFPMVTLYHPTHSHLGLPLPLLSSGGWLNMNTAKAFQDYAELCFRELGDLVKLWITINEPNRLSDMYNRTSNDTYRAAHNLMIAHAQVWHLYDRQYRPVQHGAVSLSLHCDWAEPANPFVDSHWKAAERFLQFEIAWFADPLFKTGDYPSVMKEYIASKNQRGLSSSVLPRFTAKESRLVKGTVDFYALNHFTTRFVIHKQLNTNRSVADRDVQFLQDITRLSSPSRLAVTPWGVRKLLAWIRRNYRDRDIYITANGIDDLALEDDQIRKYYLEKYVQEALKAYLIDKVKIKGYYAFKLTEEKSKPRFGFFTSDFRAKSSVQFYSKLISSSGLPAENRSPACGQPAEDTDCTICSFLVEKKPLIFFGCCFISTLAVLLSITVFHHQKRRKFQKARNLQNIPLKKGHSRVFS

T2: huBeta_Klotho (1-301, 509-743, 967-1044) (muBeta KLOTHO 302-506, 742-964) (human; murine, UniProt Q86Z14 1-1044)
T2 construct: also called Chimera 14; Construct 14
T2 chain: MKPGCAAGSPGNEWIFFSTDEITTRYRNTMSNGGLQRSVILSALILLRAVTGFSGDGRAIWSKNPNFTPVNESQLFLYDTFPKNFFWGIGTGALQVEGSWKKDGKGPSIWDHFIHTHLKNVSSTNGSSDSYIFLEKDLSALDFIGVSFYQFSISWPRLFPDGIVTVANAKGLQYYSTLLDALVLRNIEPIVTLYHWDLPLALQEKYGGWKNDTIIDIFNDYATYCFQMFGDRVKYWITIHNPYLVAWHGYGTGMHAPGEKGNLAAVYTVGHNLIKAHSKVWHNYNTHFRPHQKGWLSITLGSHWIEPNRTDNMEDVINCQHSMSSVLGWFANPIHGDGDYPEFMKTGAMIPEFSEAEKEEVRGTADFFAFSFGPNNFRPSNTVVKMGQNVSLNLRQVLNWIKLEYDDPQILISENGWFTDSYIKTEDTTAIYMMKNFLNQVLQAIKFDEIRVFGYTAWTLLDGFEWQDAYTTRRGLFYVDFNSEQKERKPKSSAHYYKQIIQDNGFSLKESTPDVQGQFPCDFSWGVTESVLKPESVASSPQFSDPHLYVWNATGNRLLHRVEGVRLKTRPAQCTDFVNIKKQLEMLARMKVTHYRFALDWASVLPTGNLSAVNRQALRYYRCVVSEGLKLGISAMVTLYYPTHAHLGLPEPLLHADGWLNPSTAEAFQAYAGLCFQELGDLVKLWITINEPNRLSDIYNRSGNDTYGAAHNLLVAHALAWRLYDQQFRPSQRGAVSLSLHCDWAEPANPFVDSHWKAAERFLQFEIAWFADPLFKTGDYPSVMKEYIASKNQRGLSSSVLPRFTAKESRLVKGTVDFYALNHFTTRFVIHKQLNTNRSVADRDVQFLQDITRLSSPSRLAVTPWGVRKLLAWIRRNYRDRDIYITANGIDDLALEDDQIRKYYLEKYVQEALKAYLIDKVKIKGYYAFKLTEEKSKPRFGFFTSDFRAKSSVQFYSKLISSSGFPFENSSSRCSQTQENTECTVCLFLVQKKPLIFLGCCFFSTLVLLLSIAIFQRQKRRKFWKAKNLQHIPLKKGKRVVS

B1: 65C3.1 (antibody, V domains shown)
VH: QVQLQESGPGLVKPSETLSLTCTVSGGSISSYYWSWIRQPPGKGLEWIGYIYYTGSTNYNPSLKSRVTISVDTSKNQFSLKLSSVTAADTAVYYCAREYYYGSGSYYPWGQGTLVTVSS
VL: EMVMTQSPATLSVSPGERATLSCRASQSVSSQLAWYQEKPGRAPRLLIYGASNRAIDIPARLSGSGSGTEFTLTISSLQSEDFAVYYCQQYNNWPWTFGQGTKVEFKR
B2: 67F5.1 (antibody, V domains shown)
VH: B1 VH with Q5K, T54S, S56N
VL: EIVMTQSPATLSVSPGERVTLSCRASQSVSSNLAWYQQKPGQAPRLLIHGSSNRAIGIPARFSGSGSGTEFTLTISSLQSADFAVYNCQQYEIWPWTFGQGTKVEIKR
B3: 67C10.1 (antibody, V domains shown)
VH: EVQLVQSGAEVKKPGESLKISCQGSGYSFSSYWIGWVRQMPGKGLEWMGIIYPGDSDTRYSPSFQGQVTISADKSINTAYLQWSSLKASDTAIYYCARRASRGYRYGLAFAIWGQGTMVTVSS
VL: DFVMTQTPLSLPVTPGEPASISCRSSQSLLNSDDGNTYLDWYLQKPGQSPQLLIYTLSYRASGVPDRFSGSGSGTDFTLKISRVEAEDVGVYYCMQRIEFPITFGQGTRLEIKR
B4: 49G3.3 (antibody, V domains shown)
VH: QVTLKESGPVLVKPTETLTLTCTVSGFSLSNPRMGVSWIRQPPGKALEWLTHIFSNDEKSYSTSLKSRLTISKDTSKSQVVLSMTNMDPVDTATYYCVRVDTLNYHYYGMDVWGQGTTVTVSS
VL: DIQMTQSPSSLSASIGDRVTITCQASQGISNYLNWYQQKPGKAPKLLIYDASNLETGVPSRFSGSGSGTDFTFTISSLQPEDIATYYCHQYDDLPLTFGGGTKVEIRR
B5: 51E5.1 (antibody, V domains shown)
VH: QVQLQQWGAGLLKPSETLSLTCAVYGGSFSGYYWSWIRQPPGKGLEWIGELDHSGSINYNPSLKSRVTISVDTSKNQFSLKLTSVTAADTAVYYCARVLGSTLDYWGQGTLVTVSS
VL: DIQMTQSPSSLSASVGDRVTITCRASQDIRNDLGWYQQKPGKAPNRLIYAASSLQFGVPSRFSGSGSGTEFTLTISSLQPEDFATYYCLQHSSYPLTFGGGTRVEIKR
B6: 66G2.1 (antibody, V domains shown)
VH: QVQLVESGGGVVQPGRSLRLSCAASGFTFSSYGMHWVRQAPGKGLEWVAGISYDGSNKNYADSVKGRITISRDNPKNTLYLQMNSLRAEDTAVYYCATTVTKEDYYYYGMDVWGQGTTVTVSS
VL: B5 VL with D28G, N45K, S53N, F56S, E70K, S76N, H91L, S92N, S93G, R103K

target: T3, huBeta_Klotho (82-1044) (muBeta KLOTHO 1-81F) (murine; human, UniProt Q86Z14 1-1044); experiment: flow cytometry, transfected HEK-293T
T3 construct: also called Chimera 12; Construct 12

Row | binding result | Binder
1 | binds | B1
2 | binds | B2
3 | binds | B3
4 | no binding | B4
5 | binds | B5
6 | binds | B6

target: T4, huBeta_Klotho (1-736, 967-1044) (muBeta KLOTHO 735A-963S) (human; murine, UniProt Q86Z14 1-1044); experiment: flow cytometry, transfected HEK-293T
T4 construct: also called Chimera 11; Construct 11

Row | binding result | Binder
7 | no binding | B1
8 | no binding | B2
9 | no binding | B3
10 | binds | B4
11 | no binding | B5
12 | no binding | B6

target: T5, huBeta_Klotho (1-633, 852-1044) (muBeta KLOTHO 632G-849Q) (human; murine, UniProt Q86Z14 1-1044); experiment: flow cytometry, transfected HEK-293T
T5 construct: also called Chimera 10; Construct 10

Row | binding result | Binder
13 | binds | B1
14 | no binding | B2
15 | no binding | B3
16 | binds | B4
17 | no binding | B5
18 | no binding | B6

target: T6, huBeta_Klotho (1-507) (muBetaKLOTHO 506F-1045S) (human; murine, UniProt Q99N32 1-1043); experiment: flow cytometry, transfected HEK-293T
T6 construct: also called Chimera 2; Construct 2

Row | binding result | Binder
19 | no binding | B1
20 | no binding | B2
21 | no binding | B3
22 | binds | B4
23 | no binding | B5
24 | no binding | B6

target: T7, huBeta_Klotho (1-193, 419-1044) (muBetaKLOTHO Y194-416G) (human; murine, UniProt Q86Z14 1-1044); experiment: flow cytometry, transfected HEK-293T
T7 construct: also called Chimera 5; Construct 5

Row | binding result | Binder
25 | binds | B1
26 | binds | B2
27 | binds | B3
28 | no binding | B4
29 | binds | B5
30 | binds | B6

target: T8, huBeta_Klotho(1-301, 509-1044) (muBetaKLOTHO S302-F506) (human; murine, UniProt Q86Z14 1-1044); experiment: flow cytometry, transfected HEK-293T
T8 construct: also called Chimera 6; Construct 6

Row | binding result | Binder
31 | binds | B1
32 | binds | B2
33 | binds | B3
34 | no binding | B4
35 | binds | B5
36 | binds | B6

target: T1, murine β-Klotho; experiment: flow cytometry, transfected HEK-293T

Row | binding result | Binder
37 | no binding | B1
38 | no binding | B2
39 | no binding | B3
40 | no binding | B4
41 | no binding | B5
42 | no binding | B6

Target: T2, huBeta_Klotho (1-301, 509-743, …)
Experiment: flow cytometry, transfected HEK-293T

Row | binding result | Binder
43 | no binding | B1
44 | no binding | B2
45 | no binding | B3
46 | no binding | B4
47 | no binding | B5
48 | no binding | B6

target: T9, huBeta_Klotho (194-1044) (muBetaKLOTHO 1-L193) (murine; human, UniProt Q86Z14 1-1044); experiment: flow cytometry, transfected HEK-293T
T9 construct: also called Chimera 3; Construct 3

Row | binding result | Binder
49 | binds | B1
50 | binds | B2
51 | binds | B3
52 | no binding | B4
53 | binds | B5
54 | binds | B6
